Reference: the supplement of paper PMC9112550, “Optimization of the antimicrobial peptide Bac7 by deep mutational scanning” (BMC Biology, 2022)

System: Escherichia coli TOP10
Experiment: shrunken log2 fold change of peptide-encoding DNA abundance (4.5 h post-induction vs induction); higher = less antimicrobial activity (less host growth inhibition)
Conditions: time post-induction: 4.5 h; library: site-saturation at positions 5, 18, 19, 20
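Also: peptides expressed intracellularly from a pBAD plasmid library in pooled LB shake-flask culture, induced with 0.3% L-arabinose, DNA abundance read by NGS, three biological replicates, DESeq2 with apeglm shrinkage.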

RRIRDRPPRLPRPRPRPHKGPRP
shrunken log2 fold change: 0.0993

RRIRHRPPRLPRPRPRPQGGPRP
shrunken log2 fold change: -0.0982

RRIRERPPRLPRPRPRPHFEPRP
shrunken log2 fold change: -0.211

RRIRSRPPRLPRPRPRPVKTPRP
shrunken log2 fold change: -0.0806

RRIRQRPPRLPRPRPRPVGLPRP
shrunken log2 fold change: 0.35

RRIRIRPPRLPRPRPRPILAPRP
shrunken log2 fold change: -0.286

RRIRNRPPRLPRPRPRPNRMPRP
shrunken log2 fold change: -0.385

RRIRIRPPRLPRPRPRPQWIPRP
shrunken log2 fold change: 3.04

RRIRHRPPRLPRPRPRPIWTPRP
shrunken log2 fold change: -0.311

RRIRDRPPRLPRPRPRPYAVPRP
shrunken log2 fold change: -0.165

RRIRTRPPRLPRPRPRPQGRPRP
shrunken log2 fold change: -0.0678

RRIRFRPPRLPRPRPRPPKQPRP
shrunken log2 fold change: 0.226

RRIRGRPPRLPRPRPRPVKMPRP
shrunken log2 fold change: 0.127

RRIRARPPRLPRPRPRPSIVPRP
shrunken log2 fold change: -0.103

RRIRFRPPRLPRPRPRPHTQPRP
shrunken log2 fold change: -0.225

RRIRQRPPRLPRPRPRPWYDPRP
shrunken log2 fold change: -0.138

RRIRVRPPRLPRPRPRPDRIPRP
shrunken log2 fold change: -0.135

RRIRHRPPRLPRPRPRPCRCPRP
shrunken log2 fold change: -0.271

RRIRRRPPRLPRPRPRPYFGPRP
shrunken log2 fold change: -0.163

RRIRYRPPRLPRPRPRPQSKPRP
shrunken log2 fold change: -0.607

RRIRIRPPRLPRPRPRPFAYPRP
shrunken log2 fold change: -0.396

RRIRFRPPRLPRPRPRPWNQPRP
shrunken log2 fold change: 0.0676

RRIRYRPPRLPRPRPRPGKHPRP
shrunken log2 fold change: 0.0354

RRIRGRPPRLPRPRPRPLYWPRP
shrunken log2 fold change: -0.169

RRIRLRPPRLPRPRPRPYYMPRP
shrunken log2 fold change: -0.671

RRIRTRPPRLPRPRPRPPEKPRP
shrunken log2 fold change: 0.0774

RRIRPRPPRLPRPRPRPASSPRP
shrunken log2 fold change: 0.0138

RRIRFRPPRLPRPRPRPNGCPRP
shrunken log2 fold change: -0.0256

RRIRKRPPRLPRPRPRPVSTPRP
shrunken log2 fold change: -0.102

RRIRFRPPRLPRPRPRPPKSPRP
shrunken log2 fold change: 0.234

RRIRIRPPRLPRPRPRPARNPRP
shrunken log2 fold change: -0.179

RRIRPRPPRLPRPRPRPDYPPRP
shrunken log2 fold change: -0.0173

RRIRNRPPRLPRPRPRPGYTPRP
shrunken log2 fold change: -0.501

RRIRKRPPRLPRPRPRPEMVPRP
shrunken log2 fold change: 0.422

RRIRYRPPRLPRPRPRPPYWPRP
shrunken log2 fold change: -0.22

RRIRLRPPRLPRPRPRPRSFPRP
shrunken log2 fold change: -0.107

RRIRARPPRLPRPRPRPFAGPRP
shrunken log2 fold change: 0.0859

RRIRSRPPRLPRPRPRPQLKPRP
shrunken log2 fold change: 0.0348

RRIRPRPPRLPRPRPRPTMSPRP
shrunken log2 fold change: 0.0176

RRIRRRPPRLPRPRPRPVPLPRP
shrunken log2 fold change: 0.385

RRIRERPPRLPRPRPRPREVPRP
shrunken log2 fold change: 0.13

RRIRWRPPRLPRPRPRPYLYPRP
shrunken log2 fold change: -0.216

RRIRDRPPRLPRPRPRPGCQPRP
shrunken log2 fold change: 0.341

RRIRFRPPRLPRPRPRPYIEPRP
shrunken log2 fold change: -0.504

RRIRRRPPRLPRPRPRPRLYPRP
shrunken log2 fold change: -0.00733

RRIRTRPPRLPRPRPRPVRNPRP
shrunken log2 fold change: 0.509

RRIRERPPRLPRPRPRPIEEPRP
shrunken log2 fold change: -0.0104

RRIRFRPPRLPRPRPRPWNHPRP
shrunken log2 fold change: -0.141

RRIRGRPPRLPRPRPRPKGSPRP
shrunken log2 fold change: 1.03

RRIRHRPPRLPRPRPRPWFRPRP
shrunken log2 fold change: -0.00674

RRIRSRPPRLPRPRPRPRVFPRP
shrunken log2 fold change: 0.151

RRIRPRPPRLPRPRPRPWINPRP
shrunken log2 fold change: -0.719

RRIRCRPPRLPRPRPRPDDFPRP
shrunken log2 fold change: 0.0333

RRIRHRPPRLPRPRPRPAICPRP
shrunken log2 fold change: -0.218

RRIRLRPPRLPRPRPRPRSHPRP
shrunken log2 fold change: 0.195

RRIRSRPPRLPRPRPRPIYIPRP
shrunken log2 fold change: -0.776

RRIRRRPPRLPRPRPRPYMGPRP
shrunken log2 fold change: 0.00385

RRIRFRPPRLPRPRPRPVKMPRP
shrunken log2 fold change: -0.0692

RRIRARPPRLPRPRPRPLPTPRP
shrunken log2 fold change: 0.771

RRIRLRPPRLPRPRPRPERDPRP
shrunken log2 fold change: -0.189

RRIRDRPPRLPRPRPRPRYWPRP
shrunken log2 fold change: 0.152

RRIRTRPPRLPRPRPRPCDHPRP
shrunken log2 fold change: -0.0753

RRIRKRPPRLPRPRPRPQDGPRP
shrunken log2 fold change: 0.013

RRIRLRPPRLPRPRPRPCQVPRP
shrunken log2 fold change: -0.128

RRIRRRPPRLPRPRPRPIRGPRP
shrunken log2 fold change: 0.1

RRIRCRPPRLPRPRPRPVCSPRP
shrunken log2 fold change: -0.0747

RRIRHRPPRLPRPRPRPPPKPRP
shrunken log2 fold change: 0.906

RRIRTRPPRLPRPRPRPWSEPRP
shrunken log2 fold change: -0.364

RRIRCRPPRLPRPRPRPCWEPRP
shrunken log2 fold change: -0.0142

RRIRFRPPRLPRPRPRPWTKPRP
shrunken log2 fold change: 0.0163

RRIRGRPPRLPRPRPRPYSGPRP
shrunken log2 fold change: -0.0221

RRIRVRPPRLPRPRPRPDQIPRP
shrunken log2 fold change: -0.0895

RRIRARPPRLPRPRPRPDNVPRP
shrunken log2 fold change: -0.059

RRIRWRPPRLPRPRPRPVTRPRP
shrunken log2 fold change: -0.0273

RRIRFRPPRLPRPRPRPERGPRP
shrunken log2 fold change: 0.0525

RRIRHRPPRLPRPRPRPHRCPRP
shrunken log2 fold change: 0.0171

RRIRDRPPRLPRPRPRPMVMPRP
shrunken log2 fold change: 0.133

RRIRRRPPRLPRPRPRPCWGPRP
shrunken log2 fold change: 0.0286

RRIRYRPPRLPRPRPRPTTAPRP
shrunken log2 fold change: -0.415

RRIRHRPPRLPRPRPRPHYVPRP
shrunken log2 fold change: -0.057

RRIRNRPPRLPRPRPRPDRGPRP
shrunken log2 fold change: -0.0223

RRIRARPPRLPRPRPRPAKTPRP
shrunken log2 fold change: 0.179

RRIRQRPPRLPRPRPRPTGAPRP
shrunken log2 fold change: 0.412

RRIRTRPPRLPRPRPRPTCQPRP
shrunken log2 fold change: 0.234

RRIRGRPPRLPRPRPRPHQIPRP
shrunken log2 fold change: 0.103

RRIRERPPRLPRPRPRPGFHPRP
shrunken log2 fold change: -0.277

RRIRDRPPRLPRPRPRPGTAPRP
shrunken log2 fold change: 0.0777

RRIRHRPPRLPRPRPRPRFLPRP
shrunken log2 fold change: 0.0768

RRIRHRPPRLPRPRPRPHYNPRP
shrunken log2 fold change: -1.11

RRIRVRPPRLPRPRPRPQIAPRP
shrunken log2 fold change: -0.0465

RRIRHRPPRLPRPRPRPAQSPRP
shrunken log2 fold change: -0.0382
